Tests used:
[1] = biological target: Src family kinase 1 (SFK1) (Lytechinus pictus (endogenous in eggs and egg extract)); assay: FRET or BRET; FRET by single-photon multi-frequency domain FLIM; cell-free assay, demembranated sperm nuclei decondensed in fertilised egg extract (S10) with ATP-GS, no GTP; fixed, labelled with anti-PLCγ-OG488 (donor) and anti-SFK1-Alexa 546 (acceptor)
[2] = biological target: Src family kinase 1 (SFK1) (Lytechinus pictus (endogenous in eggs and egg extract)); assay: FRET or BRET; time-resolved FRET by two-photon time-domain FLIM; unfertilised L. pictus eggs (T0), fixed, labelled with anti-PLCγ-OG488 (donor) and anti-SFK1-Cy5 (acceptor); FRET efficiency from donor lifetime
[3] = biological target: Src family kinase 1 (SFK1) (Lytechinus pictus (endogenous in eggs and egg extract)); assay: FRET or BRET; time-resolved FRET by two-photon time-domain FLIM; L. pictus eggs three minutes post-fertilisation (T+3), fixed, labelled with anti-PLCγ-OG488 (donor) and anti-SFK1-Cy5 (acceptor); ROI whole egg or male pronucleus

FRET efficiency [1]: 5.7%
FRET efficiency % (egg ROI) [2]: 18.9%
FRET efficiency % (MPN ROI) [3]: 4.8%
FRET efficiency % (egg ROI) [3]: 5.3%
Substance: phospholipase Cγ (PLCγ) (enzyme)

Reference: article PMC3404105
